Assay [1] concerns the target T1, human BR3 on the cell surface (BJAB cells; primary human B cells) (human, UniProt Q96RJ3 1-184).
T1 construct: whole, on cells; also called BAFF-R; cell surface BR3
The assay can be described thus: BJAB binding assay.

Assay [2] has as its target T1, human BR3 on the cell surface (BJAB …). Kind of assay: direct binding to BJAB cells, anti-human IgG Fc-HRP.
Assay [3] has as its target T2, human BR3 extracellular domain (human, UniProt Q96RJ3 1-78).
T2 construct: extracellular domain; also called BR3 ECD; Br3 ECD WT
Kind of assay: BIAcore, IgG on chip, BR3 ECD in solution, 1:1 Langmuir model. For orientation: SPR reads the build-up and loss of mass on a sensor chip optically.

Assay [4] has as its target T1, human BR3 on the cell surface (BJAB …). The assay can be described thus: competition with 25 nM FLAG-BAFF on BJAB cells.
Assay [5] concerns the target T3, human FcγRIIa extracellular domain, His-tagged GST fusion (human, UniProt P12318 34-217).
T3 construct: extracellular domain; also called hFcgRIIa; CD32A; not shown: C-terminal Gly/His6/GST tag
T3 sequence (looked up): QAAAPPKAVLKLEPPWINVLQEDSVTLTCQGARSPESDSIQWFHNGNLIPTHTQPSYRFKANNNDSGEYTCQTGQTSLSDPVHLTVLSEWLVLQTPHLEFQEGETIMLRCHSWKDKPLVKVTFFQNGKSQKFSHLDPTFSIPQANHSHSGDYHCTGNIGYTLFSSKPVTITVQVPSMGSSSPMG
Kind of assay: ELISA, captured FcγR-GST.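 Also: antibody variants applied as dilution series to receptor wells, with retained antibody read out via an HRP-linked goat F(ab′)2 fragment recognizing human Fab′2.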

For assay [6], the target named is T4, mouse FcγRII extracellular domain, His-tagged GST fusion (mouse, UniProt P08101 30-210).
T4 construct: extracellular domain; also called Mouse II; not shown: His tag and GST
T4 sequence (looked up): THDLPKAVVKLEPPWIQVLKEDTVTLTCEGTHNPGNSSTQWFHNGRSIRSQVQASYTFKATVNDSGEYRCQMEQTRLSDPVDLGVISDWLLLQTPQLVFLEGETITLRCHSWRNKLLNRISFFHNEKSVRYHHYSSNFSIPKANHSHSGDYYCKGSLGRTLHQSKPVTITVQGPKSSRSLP
The assay can be described thus: ELISA, captured FcγR-GST.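 Also: antibody variants applied as dilution series to receptor wells, with retained antibody read out via an HRP-linked goat F(ab′)2 fragment recognizing human Fab′2.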 For orientation: In an ELISA, binding on a coated surface is turned into a signal by an enzyme label.

Assay [7] addresses T5, mouse FcγRI extracellular domain, His-tagged GST fusion (mouse, UniProt P26151 25-297).
T5 construct: extracellular domain; also called Mouse I; mFcγRI; not shown: His tag and GST
T5 sequence (looked up): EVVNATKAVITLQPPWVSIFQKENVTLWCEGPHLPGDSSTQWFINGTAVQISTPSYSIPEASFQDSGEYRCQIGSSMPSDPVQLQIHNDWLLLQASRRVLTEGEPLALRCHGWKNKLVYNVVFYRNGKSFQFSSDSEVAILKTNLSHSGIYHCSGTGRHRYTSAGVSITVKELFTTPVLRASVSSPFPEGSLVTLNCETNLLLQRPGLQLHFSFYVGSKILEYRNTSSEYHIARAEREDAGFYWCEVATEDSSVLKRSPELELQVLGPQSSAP
The assay can be described thus: ELISA, captured FcγR-GST.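 Also: antibody variants applied as dilution series to receptor wells, with retained antibody read out via an HRP-linked goat F(ab′)2 fragment recognizing human Fab′2.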

Assay [8] concerns the target T6, human FcγRIIb extracellular domain, His-tagged GST fusion (human, UniProt P31994 43-217).
T6 construct: extracellular domain; also called hFcgRIIb; CD32B; not shown: C-terminal Gly/His6/GST tag
T6 sequence (looked up): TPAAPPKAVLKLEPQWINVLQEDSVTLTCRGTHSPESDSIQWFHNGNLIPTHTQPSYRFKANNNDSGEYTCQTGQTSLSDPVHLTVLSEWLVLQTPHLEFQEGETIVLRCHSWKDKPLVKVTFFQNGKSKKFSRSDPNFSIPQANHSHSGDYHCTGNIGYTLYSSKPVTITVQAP
Kind of assay: ELISA, captured FcγR-GST.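 Also: antibody variants applied as dilution series to receptor wells, with retained antibody read out via an HRP-linked goat F(ab′)2 fragment recognizing human Fab′2.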

Assay [9] concerns the target T7, mouse FcγRIII extracellular domain, His-tagged GST fusion (mouse, UniProt P08508 31-215).
T7 construct: extracellular domain; also called Mouse III; not shown: His tag and GST
T7 sequence (looked up): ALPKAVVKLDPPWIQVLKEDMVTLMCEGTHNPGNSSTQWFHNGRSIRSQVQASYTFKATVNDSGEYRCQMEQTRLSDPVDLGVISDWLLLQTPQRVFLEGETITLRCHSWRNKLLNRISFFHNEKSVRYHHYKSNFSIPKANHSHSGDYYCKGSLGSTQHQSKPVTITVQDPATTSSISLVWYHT
The assay can be described thus: ELISA, captured FcγR-GST.

For assay [10], the target named is T8, human FcγRI extracellular domain, His-tagged GST fusion (human, UniProt P12314 16-292).
T8 construct: extracellular domain; also called hFcgRI; FcγRIA; not shown: C-terminal Gly/His6/GST tag
The assay can be described thus: ELISA, captured FcγR-GST.

In assay [11] the target is T3, human FcγRIIa extracellular domain, …. The assay can be described thus: ELISA, FcγR-His-GST captured by anti-GST, complexed IgG.
In assay [12] the target is T6, human FcγRIIb extracellular domain, …. The assay is described as above.
Assay [13] has as its target T2, human BR3 extracellular domain. The assay can be described thus: BIAcore, BR3 ECD on chip, IgG in solution, bivalent analyte model.
In assay [14] the target is T8, human FcγRI extracellular domain, …. The assay can be described thus: ELISA, FcγR-His-GST captured by anti-GST.
In assay [15] the target is T2, human BR3 extracellular domain. The assay can be described thus: BIAcore, BR3 ECD on chip, IgG in solution, 1:1 Langmuir model.
Assay [16] has as its target T9, human FcγRIII (CD16) on NK cells (human, UniProt P08637 17-254). The assay can be described thus: cell-based or functional assay.
Assay [17] has as its target T9, human FcγRIII (CD16) on NK cells. The assay can be described thus: cell-based or functional assay. This is another data set of the same source.
Assay [18] concerns the target T6, human FcγRIIb extracellular domain, …. The assay can be described thus: Fcγ receptor ELISA; bar = fold increase in binding over Herceptin, log axis 0.1-1000.
Assay [19] deals with T8, human FcγRI extracellular domain, …. Described as above.

Substitutions are numbered along the chain they refer to.

B1: V3-1m (antibody, mouse IgG2a, V domains shown)
VH: EVQLVESGGGLVQPGGSLRLSCAASGFTISSNSIHWVRQAPGKGLEWVAWITPSDGNTDYADSVKGRFTISADTSKNTAYLQMNSLRAEDTAVYYCARRVCYNRLGVCAGGMDYWGQGTLVTVSS
VL: DIQMTQSPSSLSASVGDRVTITCRASQDVSTAVAWYQQKPGKAPKLLIYSASFLYSGVPSRFSGSGSGTDFTLTISSLQPEDFATYYCQQSRITPPTFGQGTKVEIKR
notes: also called mV3-1
For B1, the binding result in [1] is reported as “binds”.

B2: V3-1h (antibody, human IgG1, V domains shown)
VH: B1 VH
VL: B1 VL
Regarding B2, in assay [1], the binding result is recorded as “binds”.

B3: Hu9.1RF IgG1 (antibody)
heavy: not shown
light: DIQMTQSPSSLSASVGDRVTITCKSSQSLLYSSNQNNYLAWYQQKPGKAPKLLIYWASTRESGVPSRFSGSGSGTDFTLTISSLQPEDFATYYCQQYYTYPYTFGQGTKVEIKRTVAAPSVFIFPPSDEQLKSGTASVVCLLNNFYPREAKVQWKVDNALQSGNSQESVTEQDSKDSTYSLSSTLTLSKADYEKHKVYACEVTHQGLSSPVTKSFNRGEC
notes: Humanized IgG1 with normal (fucosylated) glycans; also called WT; WT(9.1RF)
In the case of B3, in assay [2], the midpoint of the response, the EC50, lay at 0.92 nM. For the same molecule, the Kd is 0.25 nM in assay [3], 0.52 nM in assay [13] and 0.03 nM in [15]. Moreover, the koff in assay [3] was determined as 0.000253 s⁻¹; in assay [13], 0.000339 s⁻¹; in [15], 5.21e-05 s⁻¹. Moreover, the figures for the kon in assay [3], in [13] and in assay [15] were 995000 M⁻¹ s⁻¹, 658000 M⁻¹ s⁻¹ and 1.99e+06 M⁻¹ s⁻¹, respectively. Besides, in assay [4], the IC50 came to 8.8 nM. Also, the “fold improvement in binding vs Herceptin (EC50herceptin/EC50sample)” value in assay [5] was determined as 2.3 fold; in assay [6], 0.7 fold; in assay [7] it was 1.2 fold; in assay [8] it was 0.7 fold; in assay [9], 0.8 fold; in assay [10], 1 fold. The “binding relative to 9.1-RF” value in assay [11], in assay [12] and in [14] was 1 each time.

B4: afucosylated Hu9.1RF IgG1 (antibody)
heavy: not shown
light: B3 light
modifications: N-linked Fc carbohydrate lacks fucose (made in a cell line lacking fucosyltransferase; 100% afucosylated by paragraph 557)
notes: also called AF Hu9.1RF IgG1; Hu9.1RF IgG1 AF
Consider B4, for which the EC50 in [2] was 0.49 nM. Besides, in assay [3], the Kd was found to be 0.23 nM, the koff was 0.000199 s⁻¹ and the kon stood at 852000 M⁻¹ s⁻¹. The same molecule returned an IC50 in [4] of 3.6 nM. In assay [13], the Kd was determined as 0.28 nM, the koff came to 0.000149 s⁻¹ and the association rate constant (kon) stood at 532000 M⁻¹ s⁻¹. In assay [15], this molecule had a Kd of 0.04 nM, a koff of 5.41e-05 s⁻¹ and a kon of 1.49e+06 M⁻¹ s⁻¹. Also, in [16], the “ADCC EC50 on BJAB cells with NK cells, improvement over 2% afucosylated Hu9.1RF IgG1” value was above 6 fold and the “ADCC percent cytotoxicity on BJAB cells with NK cells, increase over 2% afucosylated Hu9.1RF IgG1” value was above 3 fold.

B5: 9.1(9) (antibody, human IgG1, kappa)
heavy: EVQLVESGGGLVQPGGSLRLSCAASGFTVTAYYMSWVRQAPGKGLEWVGFIRDKANGYTTEYNPSVKGRFTISRDTSKNTFYLQMNSLRAEDTAVYYCAQVRRALDYWGQGTLVTVSSASTKGPSVFPLAPSSKSTSGGTAALGCLVKDYFPEPVTVSWNSGALTSGVHTFPAVLQSSGLYSLSSVVTVPSSSLGTQTYICNVNHKPSNTKVDKKVEPKSCDKTHTCPPCPAPELLGGPDVFLFPPKPKDTLMISRTPEVTCVVVDVSDEDPEVKFNWYVDGVEVHNAKTKPREEQYNATYRVVSVLTVLHQDWLNGKEYKCKVSNKALPAPEEKTISKAKGQPREPQVYTLPPSREEMTKNQVSLTCLVKGFYPSDIAVEWESNGQPENNYKTTPPVLDSDGSFFLYSKLTVDKSRWQQGNVFSCSVMHEALHNHYTQKSLSLSPG
light: B3 light
notes: Fc variant of 9.1RF, expressed in 293 cells; also called 9.1RF 239D/268D/298A/332E
On to B5, for which, in [17], the “ADCC on BJAB cells with NK cells, relative fold increase compared to 9.1RF” value is 10 fold. In addition, the binding result in [18] and in [19] was “binds” throughout.

B6: 9.1(10) (antibody, human IgG1, kappa)
heavy: B5 heavy with K327A
light: B3 light
notes: Fc variant of 9.1RF, expressed in 293 cells; also called 9.1RF 239D/268D/298A/326A/332E
On to B6, for which the “ADCC on BJAB cells with NK cells, relative fold increase compared to 9.1RF” value in assay [17] amounted to 10 fold. For the same molecule, the binding result in [18] and in assay [19] was “binds” in each case.

Broadly, the EC50 is the concentration at which the effect is half-maximal. A high value points to weaker potency. Usually koff stands for a measure of how fast the partners let go of each other. For orientation: kon means the second-order rate constant of association. A high value points to faster complex formation. A word on the IC50: it is the concentration at which inhibition is half-maximal. Higher therefore signals a need for much substance.

Values taken from patent US20100166741A1 (Genentech, published 2010).
